Values belong to the binder of their own block, whether it stands above or below them.
Key:
Experiment in all cases: two-hybrid library CCNG1;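 note: natural log of median RNA to DNA barcode read ratio; higher means stronger binding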
4H342-bH = target: T1, 4H342-bH
T1 chain: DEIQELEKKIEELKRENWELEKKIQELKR

4H3070-bH = target: T2, 4H3070-bH; settings: mean of both orientations
T2 chain: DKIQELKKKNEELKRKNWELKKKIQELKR

4H3632-bH = target: T3, 4H3632-bH
T3 chain: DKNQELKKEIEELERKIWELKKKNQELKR

4H496-bH = target: T4, 4H496-bH
T4 chain: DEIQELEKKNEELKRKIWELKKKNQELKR

4H953-bH = target: T5, 4H953-bH
T5 chain: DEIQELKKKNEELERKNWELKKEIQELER

4H342-bA = target: T6, 4H342-bA
T6 chain: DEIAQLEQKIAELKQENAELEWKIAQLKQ

4H3632-bA = target: T7, 4H3632-bA
T7 chain: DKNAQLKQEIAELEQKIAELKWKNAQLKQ

4H496-bA = target: T8, 4H496-bA
T8 chain: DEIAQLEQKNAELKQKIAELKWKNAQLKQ

4H2691-bA = target: T9, 4H2691-bA
T9 chain: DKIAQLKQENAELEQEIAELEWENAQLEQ

4H3070-bA = target: T10, 4H3070-bA
T10 chain: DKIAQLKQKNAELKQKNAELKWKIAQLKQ

P2mSN = target: T11, P2mSN
T11 chain: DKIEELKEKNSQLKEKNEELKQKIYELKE

P8mSN = target: T12, P8mSN
T12 chain: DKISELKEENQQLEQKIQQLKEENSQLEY

P3mSN = target: T13, P3mSN
T13 chain: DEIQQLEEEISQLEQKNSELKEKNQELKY

P5mSN = target: T14, P5mSN
T14 chain: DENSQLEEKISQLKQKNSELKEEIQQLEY

P7mSN = target: T15, P7mSN
T15 chain: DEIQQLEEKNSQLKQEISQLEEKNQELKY

P9mSN = target: T16, P9mSN
T16 chain: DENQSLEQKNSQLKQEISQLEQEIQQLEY

P4bH1 = target: T17, P4bH1
T17 chain: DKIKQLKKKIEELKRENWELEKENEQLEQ

P6mSN = target: T18, P6mSN
T18 chain: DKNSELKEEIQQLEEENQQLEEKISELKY

P4mSN = target: T19, P4mSN
T19 chain: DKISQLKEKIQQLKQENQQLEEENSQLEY

interaction score (4H342-bH): 1.49 | interaction score (4H3070-bH): 0.665 | interaction score (4H3632-bH): -0.214 | interaction score (4H496-bH): -0.307
Binder: DKIQELKKKNEELKRKNWELKKKIQELKR [4H3070-bH]

interaction score (4H953-bH): -0.501 | interaction score (4H342-bA): -0.443 | interaction score (4H3632-bA): -0.861 | interaction score (4H496-bA): -3.04 | interaction score (4H2691-bA): -1.17 | interaction score (4H3070-bA): 0.439
Binder: DKIAQLKQENAELEQEIAELEWENAQLEQ [4H2691-bA]

interaction score (P2mSN): -1.97 | interaction score (P8mSN): -1.26 | interaction score (P3mSN): -0.831 | interaction score (P5mSN): -0.724 | interaction score (P7mSN): -0.243 | interaction score (P9mSN): -1.13 | interaction score (P4bH1): -1.37 | interaction score (P6mSN): -0.752 | interaction score (P4mSN): -0.0295
Binder: DKIEELKEKNSQLKEKNEELKQKIYELKE [P2mSN]
